# Values of other authors as cited in patent US12522635B2, “Amyloid peptide variants” (Loyola Marymount University, priority 2019, dated 2026).
# Experiments:
# [1] = biological target: T1, human IAPP (Homo sapiens, UniProt P10997); conditions: cited from earlier work
# T1 sequence (P10997 34-70 limits assumed): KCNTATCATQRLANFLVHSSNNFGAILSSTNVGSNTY
# [2] = following injection; Wijesekara et al. 2015; cited from earlier work
substance,measurement,setting,value
"ANFLVH (Islet amyloid polypeptide; UniProt P10997 46-51, looked up, fragment) [peptide derived from human IAPP, from Wijesekara et al. 2015]",decrease of cytotoxicity (literature),[1],decrease cytotoxicity
same,inhibition of amyloid fibril formation (literature),[1],inhibit amyloid fibril formation
same,fasting blood glucose levels and glucose tolerance,[2],improve fasting blood glucose levels and glucose tolerance
